In patent US9018138 one finds infection of 293 cells after anti-CAR siRNA knock-down (GFP), infection of PC3-CAR against PC-3 cells (GFP fluorescence intensity, MOI 100) and infection relative to wild type fiber virus data, which are given here for 2 substances.

The target of assay [1] is coxsackievirus-adenovirus receptor (CAR) on 293, PC-3 and PC3-CAR cells (UniProt P78310). Description: cell-based or functional assay.
Another assay addresses integrins. The experiment in a line: cell-based or functional assay.

For the substance “wild type Adenovirus Serotype 5 (Ad5) Fiber, displayed on the capsid of virus AdTrack-WTFib (from UniProt P11818 1-581)”, in assay [1], the infection of 293 cells after anti-CAR siRNA knock-down (GFP) was more than 50% and the infection of PC3-CAR against PC-3 cells (GFP fluorescence intensity, MOI 100) came to 26 fold. Regarding “CAR ablated and RGD4C re-targeted Fiber (ΔTAYT-RGD), displayed on the capsid of virus AdTrack-RGD4C-2 (from UniProt P11818 1-542; P11818 543-581)”, in the assay with integrins, the infection relative to wild type fiber virus amounted to 5%.
